Measurements from paper PMC12102759 (2025).

B1: PEX5 peptide 110-125 (Peroxisomal targeting signal 1 receptor), 16-mer library wild type / PEX14 Pex14 (PEX14 PEX14, residues 16-84) (parent complex)
chain 1: ADLALSENWAQEFLAA
chain 2: TPGSENVLPREPLIATAVKFLQNSRVRQSPLATRRAFLKKKGLTDEEIDMAFQQSGTAADEPSSLGPAT

Variants of: B1
Test: proteomic peptide phage display deep mutational scan (ProP-PD DMS): M13 P8 16-mer library selected against immobilised GST-tagged bait for four days (rounds), NGS of the eluted pools per day and pseudo-replica; bait immobilised on MaxiSorp plates (10 µg), library pre-cleared on GST, 2 h binding at 4 °C, five washes; one round per day, days 1-4; value from days 2 and 3

Variant | screen value
chain 1 ADLALSENWAQMFLAA [chain 1 E12M] | 0.000654 average fractional NGS count over selection days 2 and 3 (reads of this peptide / all reads for the bait, averaged over …
chain 1 ADLALSENWAQSFLAA [chain 1 E12S] | 0.00196 average fractional NGS count over selection days 2 and 3 (reads of this peptide / all reads for the bait, averaged over …
chain 1 ADLALSENWAQIFLAA [chain 1 E12I] | 0.00181 average fractional NGS count over selection days 2 and 3 (reads of this peptide / all reads for the bait, averaged over …
chain 1 ADHALSENWAQEFLAA [chain 1 L3H] | 0.00618 average fractional NGS count over selection days 2 and 3 (reads of this peptide / all reads for the bait, averaged over …
chain 1 ADIALSENWAQEFLAA [chain 1 L3I] | 0.000729 average fractional NGS count over selection days 2 and 3 (reads of this peptide / all reads for the bait, averaged over …
chain 1 ADWALSENWAQEFLAA [chain 1 L3W] | 0.000685 average fractional NGS count over selection days 2 and 3 (reads of this peptide / all reads for the bait, averaged over …
chain 1 AWLALSENWAQEFLAA [chain 1 D2W] | 0.000382 average fractional NGS count over selection days 2 and 3 (reads of this peptide / all reads for the bait, averaged over …
chain 1 AKLALSENWAQEFLAA [chain 1 D2K] | 0.000496 average fractional NGS count over selection days 2 and 3 (reads of this peptide / all reads for the bait, averaged over …
chain 1 AALALSENWAQEFLAA [chain 1 D2A] | 0.00157 average fractional NGS count over selection days 2 and 3 (reads of this peptide / all reads for the bait, averaged over …
chain 1 ADLALSMNWAQEFLAA [chain 1 E7M] | 0.0015 average fractional NGS count over selection days 2 and 3 (reads of this peptide / all reads for the bait, averaged over …
chain 1 ADLALSSNWAQEFLAA [chain 1 E7S] | 0.00412 average fractional NGS count over selection days 2 and 3 (reads of this peptide / all reads for the bait, averaged over …
chain 1 ADLALSGNWAQEFLAA [chain 1 E7G] | 0.00129 average fractional NGS count over selection days 2 and 3 (reads of this peptide / all reads for the bait, averaged over …
chain 1 ADLALSDNWAQEFLAA [chain 1 E7D] | 0.00312 average fractional NGS count over selection days 2 and 3 (reads of this peptide / all reads for the bait, averaged over …
chain 1 ADLALSVNWAQEFLAA [chain 1 E7V] | 0.000676 average fractional NGS count over selection days 2 and 3 (reads of this peptide / all reads for the bait, averaged over …
chain 1 ADLALSANWAQEFLAA [chain 1 E7A] | 0.00398 average fractional NGS count over selection days 2 and 3 (reads of this peptide / all reads for the bait, averaged over …
chain 1 ADLALSTNWAQEFLAA [chain 1 E7T] | 0.00188 average fractional NGS count over selection days 2 and 3 (reads of this peptide / all reads for the bait, averaged over …
chain 1 ADLALSRNWAQEFLAA [chain 1 E7R] | 0.00247 average fractional NGS count over selection days 2 and 3 (reads of this peptide / all reads for the bait, averaged over …
chain 1 ADLALSENWAQEYLAA [chain 1 F13Y] | 0.00124 average fractional NGS count over selection days 2 and 3 (reads of this peptide / all reads for the bait, averaged over …
chain 1 ADLALSENWAQEILAA [chain 1 F13I] | 0.000603 average fractional NGS count over selection days 2 and 3 (reads of this peptide / all reads for the bait, averaged over …

Variant | screen value
chain 1 ADLALSEEWAQEFLAA [chain 1 N8E] | 0.00099 average fractional NGS count over selection days 2 and 3 (reads of this peptide / all reads for the bait, averaged over …
chain 1 ADLALSEIWAQEFLAA [chain 1 N8I] | 0.0016 average fractional NGS count over selection days 2 and 3 (reads of this peptide / all reads for the bait, averaged over …
chain 1 ADLALSEHWAQEFLAA [chain 1 N8H] | 0.00161 average fractional NGS count over selection days 2 and 3 (reads of this peptide / all reads for the bait, averaged over …
chain 1 ADLALSEFWAQEFLAA [chain 1 N8F] | 0.00191 average fractional NGS count over selection days 2 and 3 (reads of this peptide / all reads for the bait, averaged over …
chain 1 ADLALSESWAQEFLAA [chain 1 N8S] | 0.00269 average fractional NGS count over selection days 2 and 3 (reads of this peptide / all reads for the bait, averaged over …
chain 1 ADLALSENWAWEFLAA [chain 1 Q11W] | 0.0122 average fractional NGS count over selection days 2 and 3 (reads of this peptide / all reads for the bait, averaged over …
chain 1 ADLALSENWAFEFLAA [chain 1 Q11F] | 0.000569 average fractional NGS count over selection days 2 and 3 (reads of this peptide / all reads for the bait, averaged over …
chain 1 ADLALSENWAYEFLAA [chain 1 Q11Y] | 0.000918 average fractional NGS count over selection days 2 and 3 (reads of this peptide / all reads for the bait, averaged over …
chain 1 ADLALSENWAQEFTAA [chain 1 L14T] | 0.00188 average fractional NGS count over selection days 2 and 3 (reads of this peptide / all reads for the bait, averaged over …
chain 1 ADLALSENWAQEFDAA [chain 1 L14D] | 0.000896 average fractional NGS count over selection days 2 and 3 (reads of this peptide / all reads for the bait, averaged over …
chain 1 ADLALSENWAQEFSAA [chain 1 L14S] | 0.00136 average fractional NGS count over selection days 2 and 3 (reads of this peptide / all reads for the bait, averaged over …
chain 1 ADLALSENWAQEFFAA [chain 1 L14F] | 0.00346 average fractional NGS count over selection days 2 and 3 (reads of this peptide / all reads for the bait, averaged over …
chain 1 ADLALSENWAQEFRAA [chain 1 L14R] | 0.000944 average fractional NGS count over selection days 2 and 3 (reads of this peptide / all reads for the bait, averaged over …
chain 1 ADLHLSENWAQEFLAA [chain 1 A4H] | 0.00244 average fractional NGS count over selection days 2 and 3 (reads of this peptide / all reads for the bait, averaged over …
chain 1 ADLVLSENWAQEFLAA [chain 1 A4V] | 0.000411 average fractional NGS count over selection days 2 and 3 (reads of this peptide / all reads for the bait, averaged over …
chain 1 ADLTLSENWAQEFLAA [chain 1 A4T] | 0.00418 average fractional NGS count over selection days 2 and 3 (reads of this peptide / all reads for the bait, averaged over …
chain 1 ADLNLSENWAQEFLAA [chain 1 A4N] | 0.000393 average fractional NGS count over selection days 2 and 3 (reads of this peptide / all reads for the bait, averaged over …
chain 1 ADLALSENWAQEFLLA [chain 1 A15L] | 0.00105 average fractional NGS count over selection days 2 and 3 (reads of this peptide / all reads for the bait, averaged over …
chain 1 ADLALSENWAQEFLMA [chain 1 A15M] | 0.000398 average fractional NGS count over selection days 2 and 3 (reads of this peptide / all reads for the bait, averaged over …

Variant | screen value
chain 1 ADLALSENWAQEFLPA [chain 1 A15P] | 0.00041 average fractional NGS count over selection days 2 and 3 (reads of this peptide / all reads for the bait, averaged over …
chain 1 ADLALSENWAQEFLHA [chain 1 A15H] | 0.000537 average fractional NGS count over selection days 2 and 3 (reads of this peptide / all reads for the bait, averaged over …
chain 1 ADLALSENWAQEFLVA [chain 1 A15V] | 0.000924 average fractional NGS count over selection days 2 and 3 (reads of this peptide / all reads for the bait, averaged over …
chain 1 ADLALSENWAQEFLFA [chain 1 A15F] | 0.000391 average fractional NGS count over selection days 2 and 3 (reads of this peptide / all reads for the bait, averaged over …
chain 1 ADLAQSENWAQEFLAA [chain 1 L5Q] | 0.000395 average fractional NGS count over selection days 2 and 3 (reads of this peptide / all reads for the bait, averaged over …
chain 1 ADLAPSENWAQEFLAA [chain 1 L5P] | 0.000702 average fractional NGS count over selection days 2 and 3 (reads of this peptide / all reads for the bait, averaged over …
chain 1 ADLATSENWAQEFLAA [chain 1 L5T] | 0.000402 average fractional NGS count over selection days 2 and 3 (reads of this peptide / all reads for the bait, averaged over …
chain 1 ADLAKSENWAQEFLAA [chain 1 L5K] | 0.000511 average fractional NGS count over selection days 2 and 3 (reads of this peptide / all reads for the bait, averaged over …
chain 1 ADLAMSENWAQEFLAA [chain 1 L5M] | 0.000827 average fractional NGS count over selection days 2 and 3 (reads of this peptide / all reads for the bait, averaged over …
chain 1 ADLALSENWGQEFLAA [chain 1 A10G] | 0.00143 average fractional NGS count over selection days 2 and 3 (reads of this peptide / all reads for the bait, averaged over …
chain 1 ADLALSENWRQEFLAA [chain 1 A10R] | 0.000397 average fractional NGS count over selection days 2 and 3 (reads of this peptide / all reads for the bait, averaged over …
chain 1 ADLALSENWEQEFLAA [chain 1 A10E] | 0.000658 average fractional NGS count over selection days 2 and 3 (reads of this peptide / all reads for the bait, averaged over …
chain 1 ADLALSENWHQEFLAA [chain 1 A10H] | 0.013 average fractional NGS count over selection days 2 and 3 (reads of this peptide / all reads for the bait, averaged over …
chain 1 FDLALSENWAQEFLAA [chain 1 A1F] | 0.00127 average fractional NGS count over selection days 2 and 3 (reads of this peptide / all reads for the bait, averaged over …
chain 1 YDLALSENWAQEFLAA [chain 1 A1Y] | 0.000485 average fractional NGS count over selection days 2 and 3 (reads of this peptide / all reads for the bait, averaged over …
chain 1 TDLALSENWAQEFLAA [chain 1 A1T] | 0.00109 average fractional NGS count over selection days 2 and 3 (reads of this peptide / all reads for the bait, averaged over …
chain 1 EDLALSENWAQEFLAA [chain 1 A1E] | 0.00113 average fractional NGS count over selection days 2 and 3 (reads of this peptide / all reads for the bait, averaged over …
chain 1 ADLALLENWAQEFLAA [chain 1 S6L] | 0.00108 average fractional NGS count over selection days 2 and 3 (reads of this peptide / all reads for the bait, averaged over …
